Results published in article PMC11480844.

B1: H2-Kb / H6 (parent)
chain 1: AQKVTQTQTSISVMEKTTVTMDCVYETQDSSYFLFWYKQTASGEIVFLIRQDSYKKENATVGHYSLNFQKPKSSIGLIITATQIEDSAVYFCAMRDYNQGKLIFGQGTKLSIKP
chain 2: EAAVTQSPRSKVAVTGGKVTLSCHQTNNHDYMYWYRQDTGHGLRLIHYSYVADSTEKGDIPDGYKASRPSQENFSLILELASLSQTAVYFCASSGTAANSDYTFGSGTRLLVI
chain 3: not shown
chain 4: IQKTPQIQVYSRHPPENGKPNILNCYVTQFHPPHIEIQMLKNGKKIPKVEMSDMSFSKDWSFYILAHTEFTPTETDTYACRVKHDSMAEPKTVYWDRDM
chain 5: SIINFEKL
B2: H2-Kb / E4 (parent)
chain 1: AQSVTQPDARVTVSEGASLQLRCKYSYSGTPYLFWYVQYPRQGLQLLLKYYSGDPVVQGVNGFEAEFIKSNSSFHLRKASVHWSDSAVYFCAVSAGQGGSAKLIFGEGTKLTVSS
chain 2: GGIITQTPKFLIGQEGQKLTLKCQQNFNHDTMYWYRQDSGKGLRLIYYSITENDLQKGDLSEGYDASREKKSSFSLTVTSAQKNEMAVFLCASSIWGDSYEQYFGPGTRLTVL
chain 3: not shown
chain 4: B1 chain 4
chain 5: SIINFEKL
B3: H2-Kb / B16 (parent)
chain 1: QQQVRQSPQSLTVWEGGTTVLTCSYEDSTFNYFPWYQQFPGEGPALLISILSVSDKKEDGRFTTFFNKREKKLSLHIIDSQPGDSATYFCAARGSALGRLHFGAGTQLIVIP
chain 2: EAAVTQSPRSKVAVTGGKVTLSCHQTNNHDYMYWYRQDTGHGLRLIHYSYVADSTEKGDIPDGYKASRPSQENFSLILELASLSQTAVYFCASSDGTNQAPLFGEGTRLSVL
chain 3: not shown
chain 4: B1 chain 4
chain 5: SIINFEKL

Variants of: B1
Assay: % of reporter cells activated (NFAT-GFP), raw
Settings: with H6; scale: % of reporter cells activated
Further: test concentration or dose not given here.

Ratio to parent, by site and new letter:
chain 5 I3: D 0.149, C 1.57, A 1.33
chain 5 E6: G 0.168, W 0.084, L 0.0813, M 0.0896, A 0.0933, F 0.11, H 0.0877, V 0.0536, T 0.0942, I 0.0822, D 0.365, P 0.0822, Q 0.0813, K 0.131, R 0.097, S 0.107, N 0.102, C 0.0748, Y 0.0997
chain 5 F5: P 0.546, T 0.694, N 0.446, W 0.795, A 0.809, V 0.796, Y 0.516, G 0.381, E 0.163, L 0.863, Q 0.495, S 0.6, D 0.192, H 0.777, I 0.711, K 0.173, M 1.14, C 1.01, R 0.248
chain 5 I2: S 1.56, G 0.956, D 1.01, T 1.49, F 0.733, C 1.27, M 0.624, Q 0.385, H 0.243, Y 0.408, V 1.54, L 1.29, A 1.5, K 0.24, P 0.351, R 0.281, N 0.541, E 1.09, W 0.585

Variants of: B2
Assay: % of reporter cells activated (NFAT-GFP), raw
Settings: with E4

Ratio to parent: each site, then its substitutions
chain 5 K7: C 1.32, H 0.905, A 0.413, D 0.444, I 1.29, Q 0.521, L 0.508, G 0.841, N 0.437, W 0.413, E 0.873, T 0.378, S 0.46, V 0.841, R 0.633, M 0.492, Y 0.425, P 0.508, F 0.49
chain 5 N4: F 0.635, R 0.905, H 1.05, L 1.02, S 0.714, A 0.889, Q 0.714, M 0.968, E 0.603, C 0.921, P 0.651, V 0.825, Y 0.762, T 0.635, G 0.698, D 0.794, I 0.873, W 0.286, K 1.1
chain 5 F5: T 0.841, Y 0.492, V 0.206, W 0.54, Q 0.778, R 0.508, P 0.762, S 0.556
chain 5 I2: A 1.43, P 0.937, H 1.06, F 0.746, T 0.968, N 1.27, C 1.19, R 0.556, E 0.873, K 0.746, S 0.651, W 1.11, Q 0.937, Y 0.825, L 1.1, G 0.873, D 0.762, V 0.921, M 1.14
chain 5 S1: L 0.937, A 0.857, G 0.937, C 0.952, H 0.841, M 0.857, P 0.857, N 0.825, T 0.905, Y 0.873, E 0.698, I 0.825, K 1.24, Q 0.889, D 0.984, V 0.889, R 0.565, F 0.857, W 0.841
chain 5 I3: T 0.571, L 1.22, V 0.698, Q 0.81, S 0.762, P 0.206, D 0.73, A 0.921, H 0.921, R 0.603, F 0.762, M 1, C 0.762, N 0.667, G 0.825, W 0.762, E 1.37, Y 0.508, K 0.937
chain 5 L8: V 0.603, Y 0.6, W 0.762, H 0.825, S 0.51, F 0.427, I 0.286, N 0.778, A 0.286, Q 0.524, C 0.46, E 0.619, K 0.635, G 0.746, M 0.381, D 0.444, T 0.73, R 1.29, P 0.762

Variants of: B3
Assay: % of reporter cells activated (NFAT-GFP), raw
Settings: with B16; scale: % of reporter cells activated

Ratio to parent, by site and new letter:
chain 5 L8: C 0.996, P 1.36, S 0.65, K 0.827, D 0.823, T 0.787, H 1.1, E 0.547, W 0.689, R 1.28, N 0.744, Y 1.24, Q 1.04, F 0.579, V 0.697, G 1.26, I 0.602, A 0.921, M 0.799
chain 5 E6: T 1.4, M 1.43, K 1.12, Q 1.5, R 1.29, D 1.36, H 1.39, A 1.57, P 1.09, G 1.23, V 1.2, S 1.25, N 1.36, C 2.48, F 1.48, I 0.917, Y 1.02, W 1.05, L 1.21
chain 5 I3: Q 1.5, Y 1.33, P 2.05, V 1.07, M 1.4, W 1.08, L 1.28, F 1.11, N 1.37, G 1.22, E 1.3, A 1.55, S 1.5, K 1.44, R 0.807, C 1.52, D 1.13, H 1.38, T 1.24
chain 5 F5: P 1.74, A 1.48, L 1.44, G 1.52, S 1.27, Y 1.31, C 1.46, I 1.07, E 1.52, R 1.2, K 1.52, N 1.21, M 1.52, H 1.61, Q 1.39, W 1.26, D 1.4, V 0.945, T 1.4
chain 5 N4: T 1.04, L 1.48, P 1.25, V 1.14, F 0.909, Y 0.87, R 0.969, G 1.35, C 1.2, I 1.25, S 1.09, W 1.13, K 1.37, Q 0.992, D 1.19, A 1.39, H 1.26, M 1.21, E 1.25
chain 5 K7: G 1.06, W 0.496, D 0.886, S 0.657, N 0.823, F 1.01, R 0.488, Y 0.996, C 1.33, V 0.823, A 1.29, P 1.02, M 0.921, L 1.03, H 1.21, Q 1.39, E 1.16, T 0.665, I 1.41
chain 5 S1: W 0.941, L 1.11, Q 1.28, N 1.09, C 1.57, E 1.26, T 1.36, I 1.35, V 1.16, P 1.3, G 1.43, A 1.54, K 1.38, F 1.35, Y 1.56, M 1.08, H 1.37, R 0.846, D 1.29
chain 5 I2: W 1.35, M 1.11, A 1.49, F 1.2, V 1.33, R 0.921, D 1.19, N 1.26, P 1.48, L 1.51, H 1.62, K 1.52, S 1.34, Q 1.21, Y 1.3, T 1.34, G 1.56, E 1.47, C 1.48
